From the nanobody polyreactivity screen of Harvey et al. (2022)

Test: yeast display, Sf9 membrane polyspecificity reagent, FACS + sequencing; frameworks hold sequencing errors
Procedure, shortened: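 Nanobodies from a synthetic yeast display library (Saccharomyces cerevisiae BJ5465), induced 36–48 hours with galactose, were stained 1 hour at 4 °C with 10% biotinylated, detergent-solubilized Sf9 membrane reagent, enriched on streptavidin microbeads, then FACS-sorted. Anti-HA (expression) and streptavidin (reagent binding) fluorescence set low and high (top ~1%) gates. Polyreactivity labels come from the gate of origin. Genes were colony-PCR amplified, MiSeq 2 × 250 sequenced and filtered by CDR length.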

Sequence | polyreactivity (PSR sort gate)
QVQLVESGGGLVQAGGSLRLRCAASGRIFGYNDMGWYRQAPGKERELVAAINWTGGSTYYADSVKARFTISRDNSKNTVYLQMNSLKPEDTAVYYCNADARTKWVQTHTDFISDYDYWGQGTQVTVSS | low polyreactivity
QVQLVESGGGLVQAGGSLRLSCGASGTIFDYYVMGWYRQAPVKERELVAAISWSGASTYYADSVKGRFTISRDNAKNTVYLQMNSLKPDDTAVYYCAADYGVNTLIDYDYWGQGTQVTVSS | low polyreactivity
QVQLVESGGGLVQAGGSLRLSCAASGRTFSRNAMGWYRQAPGKERELVATITSDGSTNYADSVKGRFTISRDNAKNTVYLQMNSLKPEDTSVYYCAADEASSRGYYDYDYWGQGTQVTVSS | low polyreactivity
QVQLVDSAGCLVQAGGSLRLSCAASGRIFVYYVMGWYRQAPGKERELVASITFRGSRTYYADSVKGRFTISRDYAKNTVYLQMISLKPEDTAVYYCNADVWASGSRGDGYWGQGTQVTVAS | low polyreactivity
QVQLVESGGGLVQAGGSLRLSCAASGSIFSGNAMGWYRQAPGKERELVAAISSNGGRTYYADSVKGRFTISRDNAKNTVYLQMNSLKPEDTAVYYCAADSGKRRYGYYYWGQGTQVTVSS | high polyreactivity
QVHLVESGGGLVQAGGSLRLTCAASGSIFRFYTMGWYRPATGKERELVATISRGGSTNYADSVKGRFTISRDNAKNSVSLQMNSLKPEVTGVYYCNFGALYSTYWGYGYDYWGQGTQVTVSS | high polyreactivity
QVQLVESGGGLVQAGGSLRLSCAASGFTFSHYAMGLSRQAPGKERELVAAITWSGGSTYYADSVKGRFTISRDNAKNTVYLQMKSLKPEDTAVYYCIALVIARNIEMDYWGQGTQVTVSS | high polyreactivity
QVQLVESGGGLVQAGGSLRLSCAASGIIFSYYALGWYRQAPGKERELVAAITRGGGRTYYADSVKGRFTISRDNAKNTVSLQMNSLKPEDTAVYYCNALSRYVENDYWGQGTQVTVSS | high polyreactivity
QVQLVESGGGLVQEGGSLRLSCAASGIIFGPYVMGWYRQAPGKERELVATISRTGDTYYADSVKGRFTISRDNAKNTVYLQMNSVKPEDTAVYYCNTQDHGYGFTMDYWGQGTQVTVSS | low polyreactivity
QVQLVESGGGLVQAGGSLRLSCAASGYIFLRNAMGWYRQAPGKERELVAAIRRTGGSTYYADSVKGRFTISRDNAKHTVYLQMNSLKPEDTAVYYCAKRSYTGYESWGQGTQVTVSS | low polyreactivity
QVQLVESGGGLVQAGGSLRLSCAASGRIFAHYAMGWYRPAPGKERELVAAISSGGSTYYADSVKGRFTISRDNAKNTVYLQMKSLKPEDTAVYYCNKRPVRRKYDYWGQGTQVTVSS | low polyreactivity
QVQLVESGGCLVQAGGSLRLSCAASGRIFVTYAMGWYRQAPGNERELVAAITSRGGRTYYADSVKGRFTISRDYAKNTVYLQMNSLKPEDTAVYYCAASPGPGARYYYWCQGTQVTVSS | high polyreactivity
QVQLQESGGGLVQAGGSLRLSCAASGYIFVDYTMGWHRQAPGKERELVATINLGATSYYADSVKGRFTISRDNAKNTVYQQMNSLKPEDTAVYYCAVALQQVNYFPYWCQGTQVTVSS | low polyreactivity
QVQLVESGGGLVQAGGSLRLSCAASGGIIRTYARGWYRQAPGNETELVAAITTNAGSTYYADSVKGRFTISRDNAKNTVYLQMNSLKPEDTAVYYCAARWYYPYRTRYSASYGYWVQGTQVTVSS | high polyreactivity
QVQLVESGGGLVQAGGSHRLSSAASGSILADNAMGWYRQAPGKERELVAAISLRGGRTYYADSVKGGFTISRDNAKNTVYLQMNSLKPEDTAVYYCAAVGSFHIVDYWGEGTQVTVSS | high polyreactivity
QVQLVESGGGLVQAGGSLRLSCAASGRTFRDNPMGWYRHAPGKERELVAAISGRGSSTYYADSVKGRFTIARDNAKKTVYLQMNSLKPEDTAVYYCAALPASVRRPGWHDYWGQGTQVTVSS | high polyreactivity
QVQLVESGGGLVQAGGSLRLSCAASGRIFYFYPMGWYRQAPGKERELVAAISTSGGSTYYADSVKGRFTISRDNAKNTVYLQMNSLKPEDTAVYYCAARFRYYVSEYDYWGQGTQVTVSS | low polyreactivity
QVQLVESGGGLVQAGGSLRLSCAASGRIFHYYAMGWYRQAPGKERELVAAITSSGGSTYYADSVKGRFTISRDNAKNTVYLQMNSLKPEDTAVYYCAAGLIVGRFLRYDYWGQGTQVTVSS | high polyreactivity
QVQLDESGGGLVQAGGSLRLRCAASGFIFVSYAMGWYRQAPGKERELVAAISRGGGSTYYADSVKGRFTISRDNAKNTVYLQMNSLKPEDTAVYYCAAGRFYIDDYWGQGTQVTVSS | high polyreactivity
QVQLVESGGGLVQAGGSLRLSCAASGIIFDYYAMGLYRHAPGKEMELVASISWSGGGTYYADSVKGRFTISRDNAKNTVYLQMNSLKPEDTAVYYCNAGDHFVHWPHVKHKKFDYWGQGTQVTVSS | low polyreactivity
QVQLVESGGGLVQAGGSLRLSCAASGFTVYYYALGWYRQAPGKERELVAAISDSGGITSYADSVKGRFTISRDNAKNTVYLQMNSLKPEDTAVYYCAYIFGWSSSSKSYYYWGQGTQVTVSS | low polyreactivity
QVQLVESGGGLVQAGGSLRLSCAASGNIFYTYAMGWYRQAPGNERELVAGISSDASTTYADSVKGRFTISRDNAKNTVYLPMKSLNPEDTAVYYCPADITGIVWYVYYYWGQGTQVTVSS | low polyreactivity

Sequence | polyreactivity (PSR sort gate)
QVQLQESGGRLVQAGGSLRLSCAPSGDILEADDMGWYRQAPGKERELVASITDGGSTNCADSMKGRSTICRDNAKITVYLQMNSLKPEDTAVYYCAADAWDLYSDGQEYNYWGQGTQVTVSS | high polyreactivity
QVQLVESGGGLVQAGGSLRLSCAASGFTFYNYAMGWYRQAPGKERELVAAISTSGGSTYYADSVKGRFTISRDNAKNTVYLQMNSLKPEDTAVYYCAAQATAYSYAYYYWGQGTQVTVSS | low polyreactivity
QVQLVESGGGLVQAGGSLRLSCDASGRHFKRYDMGWYRQAPGKERELVAAISWSGTSTHYADSVKGRLTISRDNAKNTVYLQMNSLKPEDTAVYYCAAYWFNTSYPGRYDYWGQGTQVTVSS | high polyreactivity
QVQLVETGGGLVQAGGSLRLSCAASGPTFSRNAKGWYRQAPGKERELVATISRGGGITFYADSVKGRFTISRDNAKNTVYLQMNSLKPEDTAVYYCNADVRYVGLRRIVDYWGQGTQVTVSS | high polyreactivity
QVQLVESGGGLVQAGGSLRLSCAASGRTFGLNVMGWYRQAPGKERELVAAISRSGGSTYYADSVKGRFTISRDNAKNTVYLQMNSLKPEDTAVYYCAAVSRYYPYGYWGQGTQVTVSS | high polyreactivity
QVQLVESGGGLVQAGGSLRLSCAASGRIFSDYAMGWYRQAPGKERELVATISASGGSTYYADSVKGRFTVSRDNAKNSVYLQMNSLKPEDTAVYYCAGDYEGYNFDYWGQGTQVTVSS | low polyreactivity
QVQLVESGGGLVQAGGSLRLSCAASGLTFRAYAMGWYRQAPGKERELVAAITWSGGSTYYADSVKGRFTISRDNAKNTVYLQMNSLKPEDTAVYYCTAVLRAGYWYYSHGYDYWGQGTQVTVSS | low polyreactivity
QVQLVESGGGLVQAGGSLRLSCAASGFTFYGYTMGWYRQAPGKERELVAAISRSGGRTYYADSVKGRFTISRDNAKNTVYLQMNSLKPEDTAVYYCAGDSRTNGYDYWGQGTQVTVSS | high polyreactivity
QVQLVESVRGLVQAGGSLRLSCAASGSTFDNNAMGWYRQAPGKEREFVAAITYSGGGSTSYADSVKGRFTISRDNAKNTVYLQMNSLKPEDPAVYDCAAREFETDGYSLVAYNYWGQGTQVTVSS | low polyreactivity
QVQLVESGGGLVQAGGIIRLSCDASGSTFVIYAMGWYRQAPGKERELVAVIDYSDDSTYYADSVKGRFTISRDNAKNTGYLQLNSVKPEVTEVYFCAAYVYYAKGSFDYWGQGTQVTVSS | high polyreactivity
QVQLVESGGGLVQAGGSLRLSCAASGSIFYVYGMGWYRQAPGKERELVAAITRSGGIKYYADSVKGRFTISRDNAKNTVYLLMNSLKPEDTAVYYCAALSYRYTDKVVYWGQGTQVTVSS | low polyreactivity
QVQLEESGGGLVQAGGSLRLSCAASGRIFLYNAMGWYRQAPGKERELVAAISRSGGSTYYADSVKGRFTISRDNAKNTVYLQMNSLKPEDTAVYYCAVGSPYGCRAPWVRGGDYWGQGTQVTVSS | high polyreactivity
QVQLVESGGGLVQAGGSLRLSCAASGSTFYTNVMGWYRQAPGKDRELVAAISYNSGSTSYADSVKGRFTISRDNAKNTVYLQMNSLKPEDTAVYYCAVRIRLRRARLSYDYWGQGTQVTVSS | high polyreactivity
QVQLVESGGGLVQAGGSLRLSCAASGRILPFNAMGWYRQAPGKERELVAAIRWRGSSTYYADSVKGRFTISRDIAKNTVYLQMNSLKPEDTAVYYCAAPSSVRGKVISADYGYWGQGTQVTVSS | high polyreactivity
QVQLVESGGGLVQAGGSLRLSCAASGSIFSPYDMGWYRQAPGKERELVASITWRRGNTYYADSVKGRFTISRDNAKNTVYLQMNSLKPEDTAVYYCAATRGAQTPQTRKKRGFDYWGQGTQVTVSS | low polyreactivity
QVQLVESGGGLVQAGGSLRLSCAASGSIFHLYAMGWYRQAPGKEREFVAAISSSGGLTYYADSVKGRFTISRDNAKNTVYLQMNSLKPEDTEVYYCATAEQYGTKLRKVSYQYDYWGQGTQVTVSS | low polyreactivity
QVQLVESGVGLVQAGGSLRLSCAASGSTFPKNVMGWYRQAPGKERELVAAINYSGTSTYYADSVKGRFTISRDNAKNTVYLQMNSLKPEDTAVYYCAARFPLVRYNYWGQGTQVTVSS | high polyreactivity
QVQLVESGGRLVQAGGSLRLSCAASGRIFIYNAMGWYRQAPGKERELVAAISVSGGRTYYADSVKGRFTISRDNAKNTVYLQMNSLKPEDTAVYYCNKVRVGSLRGYWGQGTQVTVSS | high polyreactivity
QVQLVESGGGLVPAGGSLRLSCAASGSTFPGYAMGWYRQAPGQERELVAAISTSGGRTYYADSVKGRFTISRDNAKNTVYLQMNSLKPEDTAVYYCARVAFYVAHGGFAFGRYYYWGQGTQVTVSS | low polyreactivity
QVQLVESGGGLVQAGGSLRLSCAASGLTFTHYAMGWYRQAPGKEMELVAAISSGGRTYYADSVKGRFTISRDNAKNTVYLQMNSLKPEDTGVYYCAAVTTVYTKYGYWGQGTQVTVSS | high polyreactivity
QVQLVESGGGLVQAGGSLRLSCAASGSIFKYYAMGWYRQAPGKERELVAAISRSGTSTYYADSVKGRFTISRDNAKNTVYLQMNSLKPEDTAVYYCAARLSYYSRMNYWGQGTQVTVSS | high polyreactivity
